Experimental data from article PMC3438196.

Assays:
Assay in all cases: two-hybrid; MAPPIT (mammalian two-hybrid) in intact HEK293T cells: bait on the EpoR/leptin receptor chimera, prey on gp130 fragments, pXP2d2-rPAP1-luciferase reporter; fold induction of luciferase, Epo-stimulated (10 ng/ml hEpo) over unstimulated; 6-well or 96-well calcium phosphate transfection
[1] = biological target: Apobec3G D128Q MAPPIT bait (human) (UniProt Q9HC16)
[2] = biological target: Apobec3G D130A MAPPIT bait (human) (UniProt Q9HC16)
[3] = biological target: Apobec3G E110S MAPPIT bait (human) (UniProt Q9HC16)
[4] = biological target: Apobec3G K63E MAPPIT bait (human) (UniProt Q9HC16)
[5] = biological target: Apobec3G L184A MAPPIT bait (human) (UniProt Q9HC16)
[6] = biological target: Apobec3G M12A MAPPIT bait (human) (UniProt Q9HC16)
[7] = biological target: Apobec3G N20A MAPPIT bait (human) (UniProt Q9HC16)
[8] = biological target: Apobec3G R14S MAPPIT bait (human) (UniProt Q9HC16)
[9] = biological target: Apobec3G RD102-103SS MAPPIT bait (human) (UniProt Q9HC16)
[10] = biological target: Apobec3G T32D MAPPIT bait (human) (UniProt Q9HC16)
[11] = biological target: Apobec3G T32Q MAPPIT bait (human) (UniProt Q9HC16)
[12] = biological target: Apobec3G TF106-107AA MAPPIT bait (human) (UniProt Q9HC16)
[13] = biological target: Apobec3G TK98-99AD MAPPIT bait (human) (UniProt Q9HC16)
[14] = biological target: Apobec3G TK98-99AS MAPPIT bait (human) (UniProt Q9HC16)
[15] = biological target: Apobec3G V9A MAPPIT bait (human) (UniProt Q9HC16)
[16] = biological target: Apobec3G YS166-167AA MAPPIT bait (human) (UniProt Q9HC16)
Apobec3G YS166-167AA MAPPIT bait (human), sequence (Q9HC16 whole entry Y166A/S167A): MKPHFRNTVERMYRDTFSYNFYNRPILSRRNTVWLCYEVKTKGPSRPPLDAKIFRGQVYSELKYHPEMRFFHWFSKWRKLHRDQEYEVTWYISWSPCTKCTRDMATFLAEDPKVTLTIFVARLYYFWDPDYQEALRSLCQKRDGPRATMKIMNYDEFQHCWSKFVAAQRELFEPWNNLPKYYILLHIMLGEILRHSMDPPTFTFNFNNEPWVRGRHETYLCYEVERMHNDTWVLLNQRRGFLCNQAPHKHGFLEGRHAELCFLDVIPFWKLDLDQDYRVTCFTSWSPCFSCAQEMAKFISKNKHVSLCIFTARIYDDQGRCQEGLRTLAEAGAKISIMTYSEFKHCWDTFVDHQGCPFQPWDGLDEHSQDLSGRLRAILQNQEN

Apobec3G T32D MAPPIT bait (human), sequence (Q9HC16 whole entry T32D): as the sequence (Q9HC16 whole entry Y166A/S167A) above, with T32D, A166Y, A167S counted along it
Apobec3G TF106-107AA MAPPIT bait (human), sequence (Q9HC16 whole entry T106A/F107A): as the sequence (Q9HC16 whole entry Y166A/S167A) above, with T106A, F107A, A166Y, A167S counted along it
Apobec3G TK98-99AD MAPPIT bait (human), sequence (Q9HC16 whole entry T98A/K99D): as the sequence (Q9HC16 whole entry Y166A/S167A) above, with T98A, K99D, A166Y, A167S counted along it
Apobec3G K63E MAPPIT bait (human), sequence (Q9HC16 whole entry K63E): as the sequence (Q9HC16 whole entry Y166A/S167A) above, with K63E, A166Y, A167S counted along it
Apobec3G D128Q MAPPIT bait (human), sequence (Q9HC16 whole entry D128Q): as the sequence (Q9HC16 whole entry Y166A/S167A) above, with D128Q, A166Y, A167S counted along it
Apobec3G R14S MAPPIT bait (human), sequence (Q9HC16 whole entry R14S): as the sequence (Q9HC16 whole entry Y166A/S167A) above, with R14S, A166Y, A167S counted along it
Apobec3G N20A MAPPIT bait (human), sequence (Q9HC16 whole entry N20A): as the sequence (Q9HC16 whole entry Y166A/S167A) above, with N20A, A166Y, A167S counted along it
Apobec3G T32Q MAPPIT bait (human), sequence (Q9HC16 whole entry T32Q): as the sequence (Q9HC16 whole entry Y166A/S167A) above, with T32Q, A166Y, A167S counted along it
Apobec3G E110S MAPPIT bait (human), sequence (Q9HC16 whole entry E110S): as the sequence (Q9HC16 whole entry Y166A/S167A) above, with E110S, A166Y, A167S counted along it
Apobec3G D130A MAPPIT bait (human), sequence (Q9HC16 whole entry D130A): as the sequence (Q9HC16 whole entry Y166A/S167A) above, with D130A, A166Y, A167S counted along it
Apobec3G M12A MAPPIT bait (human), sequence (Q9HC16 whole entry M12A): as the sequence (Q9HC16 whole entry Y166A/S167A) above, with M12A, A166Y, A167S counted along it
Apobec3G L184A MAPPIT bait (human), sequence (Q9HC16 whole entry L184A): as the sequence (Q9HC16 whole entry Y166A/S167A) above, with A166Y, A167S, L184A counted along it
Apobec3G TK98-99AS MAPPIT bait (human), sequence (Q9HC16 whole entry T98A/K99S): as the sequence (Q9HC16 whole entry Y166A/S167A) above, with T98A, K99S, A166Y, A167S counted along it
Apobec3G RD102-103SS MAPPIT bait (human), sequence (Q9HC16 whole entry R102S/D103S): as the sequence (Q9HC16 whole entry Y166A/S167A) above, with R102S, D103S, A166Y, A167S counted along it
Apobec3G V9A MAPPIT bait (human), sequence (Q9HC16 whole entry V9A): as the sequence (Q9HC16 whole entry Y166A/S167A) above, with V9A, A166Y, A167S counted along it

Gagpol MAPPIT prey (pMG2-Gagpol) (natural protein)
MAPPIT signal, % of WT [1]: 71 % of WT
MAPPIT signal, % of WT [2]: 103 % of WT
MAPPIT signal, % of WT [3]: 80 % of WT
MAPPIT signal, % of WT [4]: 104 % of WT
MAPPIT signal, % of WT [5]: 110 % of WT
MAPPIT signal, % of WT [6]: 25 % of WT
MAPPIT signal, % of WT [7]: 71 % of WT
MAPPIT signal, % of WT [8]: 106 % of WT
MAPPIT signal, % of WT [9]: 63 % of WT
MAPPIT signal, % of WT [10]: 111 % of WT
MAPPIT signal, % of WT [11]: 118 % of WT
MAPPIT signal, % of WT [12]: 94 % of WT
MAPPIT signal, % of WT [13]: 74 % of WT
MAPPIT signal, % of WT [14]: 79 % of WT
MAPPIT signal, % of WT [15]: 101 % of WT
MAPPIT signal, % of WT [16]: 80 % of WT
